Experimental data taken from publication PMC8402611, “Generation and Characterization of a Spike Glycoprotein Domain A-Specific Neutralizing Single-Chain Variable Fragment against Porcine Epidemic Diarrhea Virus” (Vaccines, 2021).

Tests used:
[1] = target: T1, ectodomain of the S protein of PEDV (GeneBank no. HC070225-S) (Porcine epidemic diarrhea virus, …, UniProt A0A1Y0DDF5); assay: retention on a 100 kDa MWCO spin column (called immunoprecipitation pull-down assay); 25 pmol S protein with 125 pmol scFv, 37 C for 3 h; 100 kDa MWCO filtration, 10 washes with dPBS; SDS-PAGE with Coomassie; control of scFv alone; settings: both partners purified
T1 construct: spike (S) glycoprotein of porcine epidemic diarrhea virus, ectodomain; also called PEDV S protein; purified trimeric PEDV S glycoprotein; source: Expi293F cells, secreted, purified from the culture medium

[2] = target: T2, S protein of PEDV-CV777 (G1 PEDV) (Porcine epidemic diarrhea virus, CV777 …, UniProt H2DFZ6); assay: immunostaining of cells or tissue; ICC (HRP/DAB) and IFA (FITC) on PEDV-infected Vero cells fixed with 80% acetone; scFv 5 ug/mL in PBS for 1 h, detected by anti-V5 antibody; PBS blank as background control; settings: one partner purified
T2 construct: spike (S) protein of porcine epidemic diarrhea virus strain CV777; stood on infected cells and on purified virions; The antigen in the assays was the infected cell or the whole virion; also called G1 PEDV S protein; historic vaccine strain; source: PEDV-CV777 in infected Vero cells (acetone-fixed); purified PEDV-CV777 virions
T2 sequence (Q91AV1 26-1383): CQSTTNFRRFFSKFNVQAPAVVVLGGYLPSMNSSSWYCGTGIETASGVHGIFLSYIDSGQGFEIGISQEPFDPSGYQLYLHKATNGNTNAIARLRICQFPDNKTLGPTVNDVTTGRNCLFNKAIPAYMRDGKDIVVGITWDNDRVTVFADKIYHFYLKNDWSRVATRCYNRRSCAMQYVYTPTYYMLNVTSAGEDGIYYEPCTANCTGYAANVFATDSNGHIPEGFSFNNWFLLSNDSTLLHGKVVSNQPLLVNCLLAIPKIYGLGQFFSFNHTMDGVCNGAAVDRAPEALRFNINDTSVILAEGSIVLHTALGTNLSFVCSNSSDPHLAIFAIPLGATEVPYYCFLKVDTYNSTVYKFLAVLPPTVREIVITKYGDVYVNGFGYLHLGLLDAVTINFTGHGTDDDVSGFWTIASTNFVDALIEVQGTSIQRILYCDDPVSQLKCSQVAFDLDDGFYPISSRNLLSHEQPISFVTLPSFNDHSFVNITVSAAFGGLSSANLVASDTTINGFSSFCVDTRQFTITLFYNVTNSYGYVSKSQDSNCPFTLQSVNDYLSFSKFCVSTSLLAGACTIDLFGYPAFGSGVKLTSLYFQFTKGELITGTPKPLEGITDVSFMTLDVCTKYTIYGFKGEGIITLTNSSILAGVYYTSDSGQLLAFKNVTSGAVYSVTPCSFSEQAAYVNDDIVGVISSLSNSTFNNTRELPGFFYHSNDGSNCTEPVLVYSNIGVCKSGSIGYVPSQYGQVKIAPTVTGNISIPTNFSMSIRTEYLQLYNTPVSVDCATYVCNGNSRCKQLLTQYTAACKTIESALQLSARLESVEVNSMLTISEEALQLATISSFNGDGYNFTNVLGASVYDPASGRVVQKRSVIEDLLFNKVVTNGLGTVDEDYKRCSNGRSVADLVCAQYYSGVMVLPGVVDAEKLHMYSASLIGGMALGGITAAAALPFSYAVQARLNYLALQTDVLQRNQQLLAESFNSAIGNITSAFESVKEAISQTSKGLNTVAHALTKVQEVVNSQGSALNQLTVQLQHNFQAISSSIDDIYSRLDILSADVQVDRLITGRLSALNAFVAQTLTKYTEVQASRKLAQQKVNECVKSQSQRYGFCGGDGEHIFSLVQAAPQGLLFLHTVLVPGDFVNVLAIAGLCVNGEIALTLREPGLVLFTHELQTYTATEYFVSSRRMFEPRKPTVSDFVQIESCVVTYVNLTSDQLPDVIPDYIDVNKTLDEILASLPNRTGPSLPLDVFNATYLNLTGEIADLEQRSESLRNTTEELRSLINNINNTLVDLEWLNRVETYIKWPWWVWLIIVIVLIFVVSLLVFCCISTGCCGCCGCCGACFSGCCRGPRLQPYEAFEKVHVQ

B1: recombinant scFv of the PEDV S1^A-specific neutralizing monoclonal antibody E10E-1-10 (scFv, V domains shown)
VH: QVQLQQSGAELARPGTSVKMSCKASGYTFTNYMMHWIKQRPGQGLEWIGYINPSTGYTNYNQKFKDKATLTADKSSSTAYVQLNILTSEDSAVYYCATSTLITGDYWGQGTTLTVSS
VL: NIVLTQSPKSMSMSVGERVTLSCKASENVGTYVSWYQQKPKQSPKLLIYGTFNRYTGVPDRFTGSGSATDFTLTISSVQAEDLADYHCGQSYNYPFTFGSGTKLEIK
notes: (G4S)3 linker; About 30 kDa; The order VL, linker, VH follows the order in which the methods name the regions; also called E10E-1-10 scFv; anti-PEDV S1^A scFv; source: Expi293F cells, transfected, secreted; purified from the supernatant (IMAC on cobalt resin, SEC on Superdex 75 Increase)
binding result [1]: binds | binding result [2]: binds
